One molecule from US20240409647A1 (SINOMAB BIOSCIENCE, published 2024) can be followed below.

In general, Kd refers to the constant that tells how readily two partners part at equilibrium. As usually defined, the koff is the rate constant with which the complex falls apart. Broadly, the kon is the second-order rate constant of association.

Assay [1] has as its target T1, human IL-17RB protein (recombinant, R&D systems) (human).
T1 construct: Bought protein; also called hIL17RB
T1 sequence (Q9NRM6 whole entry, looked up): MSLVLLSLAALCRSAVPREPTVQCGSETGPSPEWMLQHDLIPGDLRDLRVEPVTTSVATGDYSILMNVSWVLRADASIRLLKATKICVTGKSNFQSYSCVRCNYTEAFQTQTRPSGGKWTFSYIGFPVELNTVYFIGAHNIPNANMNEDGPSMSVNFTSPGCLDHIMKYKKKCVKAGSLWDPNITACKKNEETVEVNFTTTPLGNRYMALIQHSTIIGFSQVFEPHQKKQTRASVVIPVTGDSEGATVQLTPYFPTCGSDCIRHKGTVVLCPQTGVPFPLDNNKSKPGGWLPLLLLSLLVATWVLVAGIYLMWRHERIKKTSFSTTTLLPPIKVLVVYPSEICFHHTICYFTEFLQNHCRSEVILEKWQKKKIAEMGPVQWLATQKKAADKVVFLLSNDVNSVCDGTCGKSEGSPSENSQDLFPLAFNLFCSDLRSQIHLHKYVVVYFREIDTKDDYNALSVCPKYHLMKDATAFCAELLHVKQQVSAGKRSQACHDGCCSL
Nature of the assay: ELISA, coated receptor; SM17 at 0.08 µg/mL; well 1.

Assay [2] deals with T2, human IL-17 receptor subunit A (human, UniProt Q96F46 33-320).
T2 construct: also called IL17RA; hIL17RA
In words: ELISA, coated receptor; SM17 at 0.08 µg/mL; well 1. Background: An ELISA detects its analyte on a solid surface through an enzyme-linked reagent.

In assay [3] the target is T3, human IL-17 receptor subunit C (human, UniProt Q8NAC3-2 21-467, limits assumed).
T3 construct: also called IL17RC; hIL17RC
T3 sequence (looked up): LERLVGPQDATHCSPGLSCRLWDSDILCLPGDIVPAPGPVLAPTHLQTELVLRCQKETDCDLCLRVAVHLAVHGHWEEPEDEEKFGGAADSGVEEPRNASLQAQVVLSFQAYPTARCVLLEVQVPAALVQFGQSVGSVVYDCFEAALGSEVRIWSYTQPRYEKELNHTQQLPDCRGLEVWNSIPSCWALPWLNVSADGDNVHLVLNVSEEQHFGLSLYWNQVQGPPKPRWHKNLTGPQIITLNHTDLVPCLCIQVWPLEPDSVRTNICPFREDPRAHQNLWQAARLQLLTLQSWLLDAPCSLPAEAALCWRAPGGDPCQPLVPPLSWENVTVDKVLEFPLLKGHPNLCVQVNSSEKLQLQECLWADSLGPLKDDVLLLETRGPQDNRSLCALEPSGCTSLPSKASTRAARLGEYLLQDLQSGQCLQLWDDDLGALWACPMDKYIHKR
In words: ELISA, coated receptor; SM17 at 0.08 µg/mL; well 1.

Assay [4] addresses T4, human IL-17 receptor subunit D (human, UniProt Q8NFM7 28-299, limits assumed).
T4 construct: also called IL17RD; hIL 17RD
T4 sequence (looked up): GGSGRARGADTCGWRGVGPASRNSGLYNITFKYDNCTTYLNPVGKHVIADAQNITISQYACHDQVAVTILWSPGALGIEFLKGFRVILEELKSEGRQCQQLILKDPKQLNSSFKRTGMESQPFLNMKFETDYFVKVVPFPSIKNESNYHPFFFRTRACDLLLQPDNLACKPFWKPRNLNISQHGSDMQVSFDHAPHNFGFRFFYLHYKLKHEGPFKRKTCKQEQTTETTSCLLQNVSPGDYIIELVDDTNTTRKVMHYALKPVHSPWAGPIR
In words: ELISA, coated receptor; SM17 at 0.08 µg/mL; well 1.

In assay [5] the target is T5, human IL-17 receptor subunit E (human, UniProt Q8NFR9 24-454, limits assumed).
T5 construct: also called hIL17RE
T5 sequence (looked up): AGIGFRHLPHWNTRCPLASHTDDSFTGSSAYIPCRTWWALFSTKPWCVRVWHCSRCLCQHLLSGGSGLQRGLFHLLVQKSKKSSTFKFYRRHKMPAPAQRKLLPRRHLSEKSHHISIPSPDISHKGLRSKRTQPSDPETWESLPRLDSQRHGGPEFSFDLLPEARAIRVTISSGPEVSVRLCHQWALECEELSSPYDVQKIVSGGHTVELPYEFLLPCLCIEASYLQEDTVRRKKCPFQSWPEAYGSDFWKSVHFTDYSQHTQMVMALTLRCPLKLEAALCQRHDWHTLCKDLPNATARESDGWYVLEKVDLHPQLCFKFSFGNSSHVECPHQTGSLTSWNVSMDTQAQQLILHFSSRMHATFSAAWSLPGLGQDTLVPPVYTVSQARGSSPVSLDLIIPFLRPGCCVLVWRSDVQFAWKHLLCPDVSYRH
In words: ELISA, coated receptor; SM17 at 0.08 µg/mL; well 1.

Assay [6] addresses T5, human IL-17 receptor subunit E. In words: ELISA, coated receptor; SM17 at 0.0032 µg/mL; well 2.
For assay [7], the target named is T1, human IL-17RB protein (recombinant, R&D …). In words: BLI (Octet RED96), SM17 captured via anti-human Fab CH1, IL17RB in solution; trial 1. For orientation: Biolayer interferometry detects binding as a change in optical thickness at a sensor tip.
Text: (§1) Irrelevant antibody (SM03, anti-human CD22 chimeric IgG1 antibody, SinoMab BioScience Limited) was used as the control reference.
For assay [8], the target named is T6, cynomolgus monkey IL-17RB protein (recombinant, R&D systems) (cynomolgus monkey, UniProt A0A2K5TUK1 18-289).
T6 construct: also called cynomolgus IL17RB; Cyno-IL17RB
T6 sequence: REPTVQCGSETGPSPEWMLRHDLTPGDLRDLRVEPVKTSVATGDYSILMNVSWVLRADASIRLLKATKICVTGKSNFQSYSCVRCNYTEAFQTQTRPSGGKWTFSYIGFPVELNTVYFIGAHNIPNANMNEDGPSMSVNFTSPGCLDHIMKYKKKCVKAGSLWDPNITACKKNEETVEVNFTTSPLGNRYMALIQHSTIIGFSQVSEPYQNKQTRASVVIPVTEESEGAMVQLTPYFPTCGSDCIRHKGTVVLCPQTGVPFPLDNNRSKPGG
Described as above.
Text: as §1

The target in assay [9] is T1, human IL-17RB protein (recombinant, R&D …). In words: BLI (Octet RED96), SM17 captured via anti-human Fab CH1, IL17RB in solution; trial 2.
Text: as §1
In assay [10] the target is T6, cynomolgus monkey IL-17RB protein …. Described as above.
Text: as §1

B1: SM17 (antibody, human IgG4 S228P, kappa, V domains shown)
VH: QVQLVQSGAEVKKPGASVKVSCKASGYTFISYWMNWVRQAPGQGLEWMGRIDPYDSEIQYNQKFKDRVTMTRDTSISTAYMELSRLRSDDTAVYYCARSGGFDWFAYWGQGTLVTVSS
VL: DIQMTQSPSSLSASVGDRVTITCRASENINSNLAWYQQKPGKAPKLLLYDVTNLADGVPSRFSGSGSGTDYTLTISSLQPEDFATYYCQHFWGPPYTFGGGTKVEIKR
notes: other paragraphs and claim 15 call the same entries VH and VL; also called humanized anti-IL17RB monoclonal antibody
In the case of B1, the “OD 450 nm Absorption” value in [1] is 0.79 OD450; in [2], 0 OD450; in [3], 0.02 OD450; in assay [4], 0.03 OD450; in assay [5] it was -0.04 OD450; in [6], -0.02 OD450. For the same molecule, the Kd stood at 0.194 nM in assay [7], 0.852 nM in assay [8], 0.546 nM in [9] and 5.11 nM in assay [10]. The koff in [7] came to 4.3e-05 s⁻¹; in assay [8] it was 2.73e-05 s⁻¹; in assay [9] it was 9.98e-05 s⁻¹; in assay [10], 0.000215 s⁻¹. Besides, the kon is 222000 M⁻¹ s⁻¹ in [7], 32100 M⁻¹ s⁻¹ in assay [8], 183000 M⁻¹ s⁻¹ in assay [9] and 42100 M⁻¹ s⁻¹ in [10].
